These results are taken from the supplement of paper PMC12042874.

± gives the uncertainty stated by the source.

The nature of this series: amyloid nucleation score (Sup35N fusion, yeast selection) (log enrichment); library NNK3; higher = more nucleation; inactive = no reads after selection. The method, boiled down: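 Peptides of 20 random codons, each fused to Sup35N, were expressed in psi-negative yeast. Cells were induced with 100 μM copper sulfate for 24 hours and grown 7 days at 30°C on medium lacking adenine and uracil, and plasmid inserts before and after selection were Illumina-sequenced. Nucleation scores are DiMSum log enrichments of output over input reads, centred on the mode score of non-aggregating sequences, and sequences under 100 input reads were excluded.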
Turning to GSYSRTLTYPHGENHENRKV, the amyloid nucleation score result was “inactive”. Under VHVSEGPRWRFHSRRDSSVV stands “inactive”; under WRFGRVFDWGRLHLGVDRCR, “inactive”. Under IVSWKVRSVSLKLLLSCAPD stands “inactive”; under DGAYYGLCMMFNVSVLMGII, 0.063 ± 0.51. To YWAQLPNPPYLLCPH belongs “inactive”. With VDIGTYMFKMTHADRWVDHG, the amyloid nucleation score result is “inactive”.

Regarding FWSHLTLTSSSFKFGTVSR, the amyloid nucleation score result is “inactive”. Under ITQLFSSLRADYAAQYYLGV stands “inactive”; under YEKPCEG, “inactive”; under CNYFVF, “inactive”. Substance RFLFSCCVGL registered an amyloid nucleation score of 2.3 ± 0.06. Under QISFGLLINLSVIFSGLDLV stands 0.801 ± 0.27; under LSGRVERVW, “inactive”; under CIYGKVFF, 0.309 ± 0.28.

On to RKLLCWTRDGRIWMRVEGTA, for which the amyloid nucleation score result is “inactive”. With SFITTCIYRNVSVFCDHSAE, the amyloid nucleation score result is “inactive”. Under NYARTFSRKRMVQKTRSGKG stands -0.077 ± 0.4; under NIFSQWYIISCLFRGKLCEH, 1 ± 0.13; under NGLPARRV, “inactive”. Turning to PGCTTN, the amyloid nucleation score entry is “inactive”. To YRTARVSG belongs “inactive”.

In turn, LWYWVELLCCTGGSRA returned an amyloid nucleation score of 2.02 ± 0.086. Under DFFAHVNAIG stands “inactive”; under CLFREA, “inactive”; under SLNNSMVWKYH, “inactive”. To CYCVGHAVLCRPEHLCSVRL belongs “inactive”; to RHSILVSYFHWWFRDWKPFW, “inactive”. Turning to YSVMSNHETIYYMSVS, the amyloid nucleation score result is “inactive”. Regarding CPYLSSVLHDAQLKATFING, the amyloid nucleation score was 1.11 ± 0.096. Under IKYFAIVSVCGFVA stands 1.23 ± 0.13; under FRFSR, “inactive”; under FVPCVWLGSGNCLCTDTMLW, 1.63 ± 0.11. To EPRGCYRQMLHKLIMS belongs “inactive”; to LHALFVLSMGQA, “inactive”; to TGPMGI, “inactive”.

On to IASAYLSVLRYPFRIAKGLI, for which the amyloid nucleation score entry is “inactive”. To RVRLIH belongs “inactive”; to RNSKWWLYLKSARSCYLGWW, “inactive”. Under VDCMATSQGRIRKYVNFVIW stands 2.35 ± 0.08; under GTIRDSGSHYKVISF, “inactive”; under CHPGASSTGSKLTSRNCL, “inactive”. Under HINARRLYFTYV stands “inactive”; under WIPHPEFGVSIGIV, “inactive”.

Turning to ISDLWLFATCSLK, the amyloid nucleation score entry is “inactive”. Take AVTYNGYDHYYRDVARHCLR: the amyloid nucleation score entry was “inactive”.

Consider CLSRSCSFFYKATYLRSEMM, for which the amyloid nucleation score result was “inactive”. To NYNRAPMGTAET belongs “inactive”; to HYYVDNPD, “inactive”. Under CSPGRIFHNGK stands “inactive”. Consider ILFEFTTPNLSYIFCFFTIH, for which the amyloid nucleation score result is “inactive”.

Take IQLWRTADGVYKVSGVNK: the amyloid nucleation score entry was “inactive”. On to MWLSTVDRHHINSQALENVD, for which the amyloid nucleation score result is “inactive”. To RQEFIGWFSTSALSAQFLS belongs “inactive”; to KYYINVVNRRYLNYFGTWLF, 0.617 ± 0.12.

As to KTLYTDSS, the amyloid nucleation score came out at 0.114 ± 0.58. Regarding DRPRQRTAFVYRQWLMYYQ, the amyloid nucleation score entry was “inactive”. Under TCLVGHDKKIDFIV stands “inactive”; under YRESDKVTFWLYLSRVDDLD, 2.06 ± 0.083; under GSDVFTFRWGNMLRTCTTGR, “inactive”. Under RSMQFGVIYAYYHRMAG stands “inactive”; under PFLYGRYFVAISNS, “inactive”. With SDIAVLRRLNCMKVKLKLWH, the amyloid nucleation score entry was “inactive”.

As to LYDCSINKQG, the amyloid nucleation score entry is “inactive”. Under DNSVALIDYSWAVTRI stands “inactive”; under SSHLVWCYDANNHWADHK, “inactive”; under TCQILRYIRSLLRMLIWCYY, -0.418 ± 0.8. As to LCKSMRNDSLDYFLHCPGML, the amyloid nucleation score entry is “inactive”.

QSFLATSFSFYFLSPGYVNY: the amyloid nucleation score entry is “inactive”.

As for TWRFVPRPLLVCMLYRYLCK, the amyloid nucleation score entry is “inactive”. As to RLHIVETLSYLNACWPDFSG, the amyloid nucleation score result is “inactive”. Under WTKSFSSNSTQVSQYYSFNL stands “inactive”; under VSFELYMHFSSFSYFGMLKG, 1.16 ± 0.13.

VSCESECLLLMIKKYFGSDS displayed an amyloid nucleation score of 0.12 ± 0.26.

In the case of FRHCWRR, the amyloid nucleation score is -0.532 ± 1.1. To VDLRLDY belongs “inactive”; to FLIYAQALLF, “inactive”; to VRLYMYMTILIGNVDLFVEG, “inactive”. As to SYLPEFRCVVRFKFFQDKLL, the amyloid nucleation score entry is “inactive”. As for IKEFLCLDLCQGGGLLSLMV, the amyloid nucleation score entry is “inactive”. Under GLRLFYAHRYAC stands “inactive”; under RDRPKFII, “inactive”; under LVWHLHSSSCRARCRIGGGK, “inactive”. For GSATSFAFFIVFLSD, the amyloid nucleation score is 1.51 ± 0.096. As for KCPRVDSA, the amyloid nucleation score result is “inactive”. To RVSFTSITWVSSLM belongs 0.003 ± 0.98; to SGCVKLVVNTCLRYY, “inactive”; to NHYLT, “inactive”.

PQHADVAFVT: the amyloid nucleation score result was “inactive”. To YYNTYCTVDIYYLNPCVNLQ belongs 3.01 ± 0.056; to VWVVV, “inactive”; to VKCQRRH, “inactive”. Under RRMLTRTFRG stands “inactive”; under YFYSHRYI, “inactive”; under YCCAKL, “inactive”. To YFLYLFRSVQCMLCHALNFN belongs 0.586 ± 0.15; to SRTGVC, -0.227 ± 1.5; to YMAVKRSWSNSMTMIHLNSV, “inactive”.

On to ESTIEMIAL, for which the amyloid nucleation score was 1.25 ± 0.11. Under ITYFLWAVFYDGFSMSFFVA stands “inactive”.
